Reference: the supplement of paper PMC10724198
± gives the standard deviation of the averaged measurements.

Test system: Saccharomyces cerevisiae
Experiment: protein stability index of tFT-peptide fusion (C-terminal peptide) (PSI (0-1 scale)); higher = more stable (slower turnover)
Details: genetic background: wild type; temperature: 30 C
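Note: PSI is a weighted mean of sequencing reads over stability bins, variants kept only with over 10 reads, mCherry proximal and sfGFP distal, peptide attached via GGGS linker.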

Sequence	protein stability index
RYYKKQNWKIGL	0.663 ± 0.13
SAAPVTLSRLPP	0.699 ± 0.071
SAAVLRWLASAG	0.683 ± 0.059
SAEKKRAKCERR	0.68 ± 0.01
SAGARIRPADAL	0.6801 ± 0.0022
SAGPVYAGGVAS	0.6895 ± 0.0068
SAIGVGGGGTGG	0.676 ± 0.0082
SAKARTNHAFQF	0.678 ± 0.0097
SALLPSPGPPAF	0.656 ± 0.089
SAPGIGFYTKSL	0.653 ± 0.064
SARWTSRIQDRS	0.652 ± 0.02
SASSPLPPAATG	0.652 ± 0.051
SAVARVGDVIAV	0.613 ± 0.059
SAVWWDRLDIRK	0.687 ± 0.012
SAWGLVLVGSWG	0.602 ± 0.011
SAYASCFGSESL	0.675 ± 0.05
SCCPVESSHSLP	0.612 ± 0.055
SCDLRALALLGG	0.707 ± 0.07
SCLGSGVSWGVW	0.731 ± 0.0053
SCLHRDLSDTCQ	0.66536 ± 0.00012
SCLVWTWVSSVL	0.573 ± 0.067
SCPLSARLYASL	0.675 ± 0.079
SCPPSARLSNTC	0.7506 ± 0.00063
SCPSFVWLSFPQ	0.7142 ± 0.0056
SCRVVSGLAIWW	0.734 ± 0.15
SCSHYLPAPLPF	0.577 ± 0.0074

Sequence	protein stability index
SCVDRAVGCRVS	0.6961 ± 0.0042
SCYTEQRVMICL	0.592 ± 0.0023
SDHVYHFRLTRV	0.709 ± 0.076
SDKGKSSVSGSN	0.678 ± 0.012
SDLGLHGRVPST	0.6671 ± 0.0014
SDPPPPPDPPSP	0.673 ± 0.032
SDSREAVLTEEP	0.625 ± 0.13
SEGRMHGLFLLN	0.544 ± 0.022
SELKNKKRKHAK	0.706 ± 0.034
SESKCRPKVSQP	0.689 ± 0.065
SEVRLMSVTSHS	0.7417 ± 0.0038
SFAPPPPPPLPS	0.686 ± 0.025
SFARPNTRALPT	0.656 ± 0.13
SFARPSFVRPFA	0.694 ± 0.017
SFEFSSRVFSLD	0.714 ± 0.055
SFFSSSRVCLGF	0.685 ± 0.11
SFHRICTYVLRP	0.634 ± 0.089
SFILPFISPLLF	0.565 ± 0.022
SFLLGLCHFYGS	0.718 ± 0.04
SFLRHSCFPSVP	0.736 ± 0.023
SFPHLARRLLSP	0.673 ± 0.06
SFPPLRPSPPLL	0.667 ± 0.019
SFPPPPFPPLFL	0.722 ± 0.023
SFSFPFGCSSRF	0.7195 ± 0.0046
SFSPLHVGPSPL	0.6843 ± 0.0048
SFSSHPPFAPSF	0.745 ± 0.018

Sequence	protein stability index
SFVFSVFGAGVD	0.778 ± 0.014
SFVRTLSCISIF	0.513 ± 0.053
SFWWCSARSFQG	0.715 ± 0.03
SFWWGGWGVGPD	0.73647 ± 0.0004
SFYFAPLLSPFA	0.597 ± 0.036
SGAGGGGWGGGV	0.7535 ± 0.0062
SGARDLVILTPW	0.713 ± 0.013
SGAWSGGGESGH	0.596 ± 0.058
SGCLGGGRGGWG	0.657 ± 0.013
SGCVGGSDVALS	0.721 ± 0.018
SGDLLLGCTLVV	0.6313 ± 0.0018
SGDVENQMGEES	0.717 ± 0.062
SGEVFEDLRAPE	0.743 ± 0.038
SGEVGVGHWVGG	0.6812 ± 0.0053
SGFKRWSDVGDY	0.6815 ± 0.0057
SGGADYMDPRLT	0.714 ± 0.027
SGGCVGLAVAGG	0.702 ± 0.056
SGGGGGGDCVGA	0.687 ± 0.015
SGGGRAECGEVR	0.702 ± 0.021
SGGQGCGGGWNV	0.708 ± 0.011
SGGVRDDFLWVL	0.728 ± 0.016
SGHFGTATTLCF	0.749 ± 0.011
SGKKKVSAQRII	0.6709 ± 0.0023
SGLLSPHTHMFP	0.598 ± 0.048
SGLPRLLLVILP	0.6104 ± 0.0031
SGNSPTRDRLRE	0.684 ± 0.16

Sequence	protein stability index
SGPTPCRSPRLL	0.636 ± 0.051
SGRGANGVPGGE	0.602 ± 0.16
SGRIYLVGLRYI	0.538 ± 0.0068
SGRTLLPPSLGD	0.606 ± 0.025
SGSFPSLALLSS	0.642 ± 0.042
SGSSRVGWLEGW	0.676 ± 0.022
SGSTRTEDDGAR	0.652 ± 0.038
SGTRARGKGVVC	0.6421 ± 0.0024
SGVHFFLRTGAL	0.692 ± 0.016
SHAAKRYNHPHS	0.7333 ± 0.00094
SHAGTEAGPGWM	0.782 ± 0.2
SHGLLTLRLALA	0.586 ± 0.017
SHPPPALVPLFK	0.678 ± 0.016
SHPPPTVPPAIP	0.677 ± 0.013
SHPSALPPISAG	0.734 ± 0.071
SHRDNEKPILSA	0.75 ± 0.015
SHSKSQRRFQTR	0.637 ± 0.093
SHVARFMDEFCM	0.79 ± 0.038
SICFWCKHWSDV	0.72 ± 0.064
SIFRVKQGKTNK	0.5732 ± 0.0025
SIGAGSSGVGQE	0.685 ± 0.037
SILEIFSQGTEM	0.693 ± 0.01
SILLPLPRLLPC	0.606 ± 0.018
SIPLYAKNSSLP	0.722 ± 0.042
SIQHGRFLTLSV	0.585 ± 0.0093
SIRPPPPSSFPA	0.806 ± 0.069

Sequence	protein stability index
SISFSLPRPLPP	0.688 ± 0.068
SISLLIWLFSSC	0.637 ± 0.05
SISYCSAFGGID	0.69655 ± 7.1e-05
SISYSNLPSLFF	0.75 ± 0.051
SIVESRGRGFRL	0.697 ± 0.18
SIVFFLPPVSSS	0.724 ± 0.089
SIWVLLVPRQSI	0.639 ± 0.11
SKDVLPGDDNVI	0.656 ± 0.073
SKFNSLNNHRKG	0.655 ± 0.033
SKKDMWMFVGEG	0.722 ± 0.032
SKLAVWVGERGF	0.759 ± 0.02
SKLTKQQKRTKS	0.665 ± 0.055
SKLVSPGVPRTP	0.78 ± 0.043
SKNLKQTQKKKT	0.808 ± 0.069
SKPEEAGADLSD	0.6 ± 0.086
SKPPLPTRLPRP	0.7056 ± 0.0032
SKRQQQKITAQE	0.67 ± 0.086
SKTQRKQIIKKQ	0.638 ± 0.056
SLASSLHTYDLT	0.661 ± 0.032
SLDQRPSLSFKR	0.663 ± 0.015
SLFFFLFSPSCL	0.691 ± 0.075
SLFFSTVELFFV	0.6707 ± 0.0053
SLFPQIFFFFFA	0.498 ± 0.0099
SLFSPSQLQSFS	0.718 ± 0.012
SLGRLKSLRSAR	0.685 ± 0.017
SLGSTHRWPPVV	0.6272 ± 0.0019

Sequence	protein stability index
SLKPHTCPPRPA	0.57 ± 0.15
SLLAVITSFPLR	0.687 ± 0.012
SLLGFAGSCLLG	0.735 ± 0.1
SLLPLHPPLTLP	0.674 ± 0.19
SLLPLSLLSSPF	0.664 ± 0.0072
SLLSSSALTASP	0.65 ± 0.043
SLLTQSPLLPPP	0.777 ± 0.29
SLNLFFYVNPRF	0.686 ± 0.06
SLPGAPSPPHPL	0.744 ± 0.0095
SLPPFPLHSFPV	0.694 ± 0.24
SLPPPPSPVSLF	0.611 ± 0.07
SLPPPRSLSFPF	0.673 ± 0.011
SLPRPPVPLLPS	0.707 ± 0.017
SLPRYPRRASHS	0.757 ± 0.068
SLPTPPLFPSFP	0.731 ± 0.014
SLQGLLSIVNYR	0.78 ± 0.15
SLQRLALLRGPP	0.736 ± 0.05
SLREEATLVRAR	0.563 ± 0.019
SLRMTVFTAPLS	0.654 ± 0.007
SLSDGGPSCPGV	0.677 ± 0.032
SLSFPPNTFSFP	0.738 ± 0.059
SLSFTFPLAPLL	0.643 ± 0.12
SLSLSFVLSSCS	0.721 ± 0.014
SLSPLPCTVLRL	0.684 ± 0.05
SLSPWRLPIGGR	0.734 ± 0.035
SLSQWTSPGLNI	0.708 ± 0.091

Sequence	protein stability index
SLSSVAYAIIIL	0.561 ± 0.021
SLTYSDGCTKSI	0.742 ± 0.043
SLVLFRSCSFFS	0.669 ± 0.024
SLVLPIFRIVSF	0.573 ± 0.039
SLWIKRSPVFSF	0.563 ± 0.014
SLWTDGYIFVLE	0.732 ± 0.016
SLYRKTLCMAYS	0.558 ± 0.019
SMAFLNQRPGIL	0.685 ± 0.017
SMGGDTFILFAV	0.67 ± 0.023
SNAIKTEESKGE	0.734 ± 0.023
SNCARGNREFYW	0.733 ± 0.058
SNCRLCGFGYVE	0.6966 ± 0.0062
SNLHCLQRGYSV	0.725 ± 0.011
SNLLKQHKDLFL	0.7162 ± 0.0027
SNRQDHACGGSA	0.687 ± 0.11
SNTSRIQGGWLK	0.699 ± 0.18
SPANLGFKHSGR	0.674 ± 0.021
SPAPALFCPARF	0.739 ± 0.022
SPAPPPPVTPPL	0.662 ± 0.013
SPAPRPSPVPGL	0.686 ± 0.015
SPARLHLPPFSP	0.717 ± 0.016
SPASPNALPAAP	0.741 ± 0.046
SPCMLLAVPHRL	0.728 ± 0.044
SPCTSPARLKLP	0.559 ± 0.063
SPEGYLLSPRCT	0.737 ± 0.049
SPFLFPRTVVGA	0.671 ± 0.11

Sequence	protein stability index
SPFLPAHPPPTA	0.714 ± 0.065
SPFLTPSSHPPS	0.681 ± 0.03
SPGFSPPFPPLS	0.776 ± 0.011
SPGLLPLALFSL	0.678 ± 0.14
SPGPTLLSPPSP	0.691 ± 0.017
SPGSSPPLLSPH	0.761 ± 0.013
SPHPLPRPTTRP	0.708 ± 0.12
SPHPPPSRLPPP	0.709 ± 0.029
SPHPPPSSPPPP	0.674 ± 0.097
SPHPTAPFVSTL	0.68 ± 0.087
SPHVAPRKLQVS	0.56147 ± 0.00038
SPLGAHPTRIVF	0.6915 ± 0.00071
SPLHASLPPVSL	0.704 ± 0.025
SPLISYQPPTDP	0.725 ± 0.061
SPLLLSSPRPSP	0.735 ± 0.062
SPLPLASPFGFP	0.719 ± 0.033
SPLPPPPAPFLP	0.6762 ± 0.0028
SPLPPPTPLPLV	0.8075 ± 0.0021
SPLPPSPPPLLF	0.762 ± 0.17
SPLSDPPPYRPP	0.591 ± 0.028
